B1: CtLcc1: Chaetomium thermophilum ALKO 4265 laccase, SEQ ID NO: 47, produced in Trichoderma reesei (protein)
chain: MKFLTYATALLGALTAVVGAIPTRSGTKKKYIRDGPGPCHTPSNRACWAPGFDINTDYEVNTPNTGVTRNYTLTLTEEDNWTGPDGVVKEKIMLVNGKTLGPTIEANWGDWIEVKVINNLLTNGTSIHWHGIHQKGSNLHDGANGVTECPIPPNGGQRTYRFRAQQYGTSWYHSHFSAQYGNGIVGPIVIHGPASLPYDIDLGPFPLTDYYYKSADELVRHTQNNGPPFSDNVLFNGTGVHPQTGHGQYAKVTLTPGKRHRLRIINMSTENHFQVSLVGHQFTVIAADMVPVHSYTTDSLFLAVGQRYDVTIDASQTPGNYWFNVTFGGGFACGGSFNPNPAAIFHYEGAPDALPTDPGVPPRDHNCLDTLDLVPVVPRNVQVNQFVKKPENTLPVELSLGGTPLFVWKVNGSAIDVDWGNPVLQYVMDRNTSYRQADNIVEVNGVNQWTYWLIENDPNGAFSLPHPMHLHGHDFLIVGRSPDVPPGSNQRYNFDPATDIYRLRGQNPTRRDVAMLPAGGWLLLAFLTDNPGAWLFHCHIAWHVSGGLSVDFLERPNDLRNSILQHDKDEFNRVCNEWRTYWPNSPHPKIDSGLKHRWVEESEWLVR
modifications: Chaetomium thermophilum ALKO4265; (1)..(607) Deduced amino acid sequence of Chaetomium thermophilum ALKO4265 CtLcc1
B2: TaLcc2: Thielavia arenaria ALKO 4197 laccase, SEQ ID NO: 41, produced in Trichoderma reesei (protein)
chain: MLTETLKSRNMLQSILALLATALGSSAFAIPELPEVSLQPRQACENTATSRQCWGDLSIDTNYYEVLPSTGRPPQEYWLSVVEGPCAPDGYNRTCMTFNGTVPGPTLFADWGDELVIHVTNNMVNNGTAIHWHGIRMLNNTLNDGVPGVTQCAIAPGESMTYRFNVTQYGSTWYHSHFSLQYAEGLFGGMILRGPSTANWDEDLGVLFLQDWSHVEAFTRWHEAKAGFPPSLDGGLINGTNTFDCSTLSPTDPKCTGNGKKFETVFEPGKKYLIRLINVAIDGVFQFSIDGHSLTVIATDLVPIVPYTTDSVQITIGQRYDIIVEANATPGNYWMRADWVTACVTNDHPEHMTGIVRYDASSIDPPTSESNVTKTSSCLGEPNEKTIPHLSLDVTNIGGTNVEELSFDTTSGDYFQWTLNTSSLVLDWGNPTMARIFNGDAIFPTEYNVVAVNKTGTGPEWTVLVIQDQSNLPIAHPIHLHGHDFWVLAAEEGVFNGNISSFNTRNPARRDVATLPGRGYLAIAFQIDNPGTWLTHCHIAWHASQGLSLEFVESQSEIVTDEVSRGVFNDVCASWRAHDPLWEQEDSGI
modifications: Thielavia arenaria ALKO4197; (1)..(589) Deduced amino acid sequence of Thielavia arenaria ALKO4197 TaLacc2

Tests used:
[1] = Redox potential of T1 copper, photometric copper titration; type: physicochemical; settings: 0.1 M KH2PO4 (pH 6.0)
Experimental: The purified recombinant Thielavia and Chaetomium laccases were characterized in terms of pH optimum, thermal stability, and pI as described in Example 2. The molecular weight was determined by MALDI-TOF mass spectrometry on a Ultraflex™ time-of-flight instrument (BrukerDaltonics, Germany) as previously described (Palonen et al., 2003). The redox-potentials of the T1 coppers of for CtLcc, and TaLcc2 laccases were determined by photometric copper titration in 0.1 M KH2PO4 (pH 6.0) as described by Xu et al. (1996) using the redox titrant couple K3Fe(CN)6/K4Fe(CN)6. The redox potential of TaLcc1 was determined with a combined Pt—AgCl/KCl microelectrode at pH 5.0 according to Sigoillot et al (2004). The characterization results are collected to Table 14.

[2] = Specific activity towards di-methoxy-phenol (DMP); type: biochemical; settings: 25 mM MES buffer, pH 5.5
Experimental: Specific activities of the purified T. arenaria and C. thermophilum laccases were determined towards different laccase substrates.

Molecule | E^0 [1] [mV] | Specific activity on DMP [2] [nkat/mg]
B1 | 480 | 290
B2 | 450 | 75
